Data as given in article PMC13489962, “Small-molecule modulation of β-arrestins” (Nature, 2026).

Legend:
[1] = tested on: Gi-mediated inhibition of adenylyl cyclase (D2R, M2R); test: GloSensor cAMP Gi activity assay at D2R or M2R; assay type: cell-based; settings: modulators 50 μM, 15 min; PTX 100 ng/mL overnight; forskolin 2 μM
Description: Gi-mediated inhibition of adenylyl cyclase was assessed using the GloSensor cAMP bioluminescence biosensor (Promega). HEK293 cells were transiently transfected with D2R or M2R together with the GloSensor cAMP reporter construct, using FuGENE 6 per the manufacturer’s protocol. Cells were seeded into poly-D-lysine-coated white clear-bottom 96-well plates at 60,000 cells per well and cultured for 24 h. GloSensor reagent was added per the manufacturer’s instructions and cells were equilibrated for 1 h at room temperature. Where indicated, pertussis toxin (PTX; 100 ng ml^−1) was applied overnight as a positive control for Gi blockade. Compounds (Cmpd-5, Cmpd-46 or Cmpd-64; 50 μM) or vehicle (DMSO) in HBSS supplemented with 20 mM HEPES (pH 7.4) and 0.05% BSA were applied for 15 min at room temperature. Cells were stimulated with forskolin (2 μM, 5 min), followed by concentration-response stimulation with quinpirole (D2R) or acetylcholine (M2R). Luminescence was recorded every 5 min over 30 min using a CLARIOstar microplate reader (BMG Labtech). Forskolin-stimulated cAMP, quantified at 10 min after agonist addition, was normalized to the maximal forskolin response per condition. Gi activity was derived from the inhibitory plateau and expressed as a percentage of the DMSO plus agonist control.

[2] = molecular target: β2V2R fused to the ProLink tag (inactive portion of β-galactosidase), in U2OS PathHunter cells; test: split reporter (BiFC, NanoBiT); PathHunter β-galactosidase enzyme fragment complementation in U2OS cells co-expressing βARR2 (enzyme acceptor) and β2V2R (ProLink); modulators or vehicle 30 min, then isoproterenol 60 min at 37 °C
[3] = molecular target: phosphorylated β2V2R (pβ2V2R): N-terminal Flag-tagged T4 lysozyme fusion-β2V2R (β2AR residues 1–341 fused to V2R residues 328–372) (UniProt P07550)

Sequence of βARR2 fused to the enzyme acceptor (EA) portion of β-galactosidase, in U2OS PathHunter cells (P32121 whole entry, the tested form may be a part): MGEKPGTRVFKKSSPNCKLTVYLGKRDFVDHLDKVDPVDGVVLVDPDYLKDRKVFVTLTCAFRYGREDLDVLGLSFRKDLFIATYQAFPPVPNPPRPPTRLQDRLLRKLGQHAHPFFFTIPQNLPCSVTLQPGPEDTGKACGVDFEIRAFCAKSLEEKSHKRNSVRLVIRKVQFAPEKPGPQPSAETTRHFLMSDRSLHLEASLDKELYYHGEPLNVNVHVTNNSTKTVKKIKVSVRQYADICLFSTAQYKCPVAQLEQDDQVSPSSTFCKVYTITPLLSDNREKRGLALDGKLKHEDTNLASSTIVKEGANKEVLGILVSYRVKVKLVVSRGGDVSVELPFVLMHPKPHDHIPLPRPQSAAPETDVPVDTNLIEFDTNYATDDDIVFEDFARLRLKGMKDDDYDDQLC
Sequence of β-arrestin2 (βARR2), rat, C terminus truncated at amino acid 394 (P29067 1-394): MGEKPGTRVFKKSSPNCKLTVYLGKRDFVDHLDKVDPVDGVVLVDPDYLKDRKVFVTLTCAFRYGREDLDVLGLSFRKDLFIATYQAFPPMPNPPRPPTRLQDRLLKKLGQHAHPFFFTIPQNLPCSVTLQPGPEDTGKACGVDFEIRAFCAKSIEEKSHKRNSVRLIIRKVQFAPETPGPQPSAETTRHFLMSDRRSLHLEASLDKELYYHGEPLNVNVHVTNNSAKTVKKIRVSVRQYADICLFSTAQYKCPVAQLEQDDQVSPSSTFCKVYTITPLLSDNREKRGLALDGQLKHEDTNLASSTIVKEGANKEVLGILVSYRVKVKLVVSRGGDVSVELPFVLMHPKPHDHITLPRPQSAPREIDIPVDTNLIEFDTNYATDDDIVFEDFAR

pertussis toxin was tested, and the “effect on agonist-induced, Gi-mediated cAMP reduction at D2R or M2R” value [1] was “abolished this response entirely”.
In the case of “βARR2 fused to the enzyme acceptor (EA) portion of β-galactosidase, in U2OS PathHunter cells (from UniProt P32121 1-409) (natural protein)”, the reduction of Emax of Iso-induced recruitment with 50 μM Cmpd-46 [2] is reported as 77.3% and the reduction of Emax of Iso-induced recruitment with 50 μM Cmpd-64 [2] is reported as 74.4%.
“β-arrestin2 (βARR2), rat, C terminus truncated at amino acid 394 (from UniProt P29067 1-394) (domain or fragment)” was tested, and the reduction of β-arrestin-mediated high-affinity [^3H]-Fen binding to pβ2V2R by Cmpd-5, Cmpd-46 and Cmpd-64, each (100 μM) [3] was 40%.
